The source of these data is the supplement of paper PMC12042874.

± gives the uncertainty stated by the source.

The series in a line: amyloid nucleation score (Sup35N fusion, yeast selection) (log enrichment); library NNK3; higher = more nucleation; inactive = no reads after selection. The method, boiled down: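 Peptides of 20 random codons, each fused to Sup35N, were expressed in psi-negative yeast. Cells were induced with 100 μM copper sulfate for 24 hours and grown 7 days at 30°C on medium lacking adenine and uracil, and plasmid inserts before and after selection were Illumina-sequenced. Nucleation scores are DiMSum log enrichments of output over input reads, centred on the mode score of non-aggregating sequences, and sequences under 100 input reads were excluded.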
YGYSVPGKIEFYVGVIGRNP yielded an amyloid nucleation score of 1.2 ± 0.085.

Regarding KGQDCNVLNSNYESSIVGDL, the amyloid nucleation score entry is “inactive”.

For the substance IYCKVVALKRFHWMEAYA, the amyloid nucleation score result was “inactive”.

VMRFYQPSTASLYGSLASPR: the amyloid nucleation score result is “inactive”.

For the substance SLPLCWAMAKGSISHRMERY, the amyloid nucleation score result was “inactive”.

On to NMFSGVG, for which the amyloid nucleation score entry is “inactive”.

As for PRMRFILGFVIIEKENDRVK, the amyloid nucleation score was -0.431 ± 0.62.

In the case of YSWRGIFNGWFFCFMARVLG, the amyloid nucleation score result is “inactive”.

Substance RPRALRQTLFDRYL registered an amyloid nucleation score of 0.872 ± 0.13.

Turning to SSSAF, the amyloid nucleation score result is “inactive”.

Turning to MCVRPLPSRLGTVGLWN, the amyloid nucleation score entry is “inactive”.

Substance EAFSSHKNFNVTCFPK gave an amyloid nucleation score of 1.77 ± 0.11.

For VLAKLVFKPYKKGVISQ, the amyloid nucleation score result is “inactive”.

For the substance VAPWKKPLPMKVTSAQFPNR, the amyloid nucleation score result was “inactive”.

Consider FARKWCVKNGYGSRTSASFM, for which the amyloid nucleation score result was “inactive”.

With FMYLT, the amyloid nucleation score result is “inactive”.

For VDNHPDFFLNLESVLINVDH, the amyloid nucleation score result was “inactive”.

For the substance RTCAYRMESVHVVRVSAGIM, the amyloid nucleation score result was “inactive”.

In the case of KGPRSGLVYGSSDHVFLA, the amyloid nucleation score result was “inactive”.

For the substance QYVWCGPFERYLASSVYGFS, the amyloid nucleation score result is “inactive”.

For the substance GLKCGFRPSSVINSYWSSQL, the amyloid nucleation score result is “inactive”.

For the substance VGTDDVIICILSVKFPLIRP, the amyloid nucleation score result was “inactive”.

QMIRVVVFNYDQFFR had an amyloid nucleation score of 1.47 ± 0.084.

Consider SLSSSWFFNISSNADMPCYN, for which the amyloid nucleation score result is “inactive”.

With QESLDANFGLIVCYADLAED, the amyloid nucleation score result was “inactive”.

For MNLDVWSFMSMFNSFRVWVQ, the amyloid nucleation score entry was “inactive”.

On to RAMCTALTSGTYRTCC, for which the amyloid nucleation score entry was “inactive”.

LSGVSWKLCVYCFTVRGAAL came in with an amyloid nucleation score of 0.863 ± 0.22.

For AASRMLWPGWNIRPSDAVVE, the amyloid nucleation score result was “inactive”.

On to AVTKLILFVVSGGMLRVLEF, for which the amyloid nucleation score result is “inactive”.

With DCYMDLSRQFRNRCGLASFY, the amyloid nucleation score result was “inactive”.

As to KNTISCPCWYINRCLVYNNI, the amyloid nucleation score worked out at 0.97 ± 0.17.

On to FEDLKTDSILYQFSRAYGDW, for which the amyloid nucleation score result was “inactive”.

As to SGYRIRVIHNMWAVGVKKRN, the amyloid nucleation score was -0.487 ± 0.78.

Consider VMLHSRFGRFRDNVTL, for which the amyloid nucleation score result is “inactive”.

In the case of DIDTLYTTIEKCFEDIT, the amyloid nucleation score result is “inactive”.

With HDLNWNSMVRCRVNVSSVIV, the amyloid nucleation score result is “inactive”.

Regarding LCPVGCFRCATGPFVKCDVY, the amyloid nucleation score result is “inactive”.

Take SVVIYWIWNCL: the amyloid nucleation score stood at 3.09 ± 0.068.

As for LAPFLFCRNNF, the amyloid nucleation score entry is “inactive”.

On to CVRNENRSGS, for which the amyloid nucleation score was -0.974 ± 2.5.

In the case of LMLEASCCSHAEFPHGVKMR, the amyloid nucleation score entry was “inactive”.

Turning to SWFSVMGNVFRMHFERRYSV, the amyloid nucleation score result was “inactive”.

Substance YVSGKSSYIIF displayed an amyloid nucleation score of 0.116 ± 0.71.

For the substance NGNNLIRVFVWYYDNS, the amyloid nucleation score was determined as 2.99 ± 0.08.

On to VYVFAQ, for which the amyloid nucleation score entry is “inactive”.

As to TARHKHGLSLCDGVADLRGC, the amyloid nucleation score result is “inactive”.

In turn, YCQESRSCWAQSYICEGVSL came in with an amyloid nucleation score of -0.253 ± 1.1.

As to MDGGASSREVAWWSLSNRGA, the amyloid nucleation score result is “inactive”.

As for CSNSGFTGENRVARLPRDGG, the amyloid nucleation score result was “inactive”.

In the case of TWNGMWFVLSSL, the amyloid nucleation score entry is “inactive”.

VCKMSNMFNSFCYYASQFCY: the amyloid nucleation score entry is “inactive”.

YLFPRVSLICERIWIENVGY: the amyloid nucleation score entry is “inactive”.

Take MVLGMYKQ: the amyloid nucleation score entry is “inactive”.

For QSNTLYIKFAAWSYFFSDPE, the amyloid nucleation score result is “inactive”.

As for FTVSFRYSLCCRDGDGESEC, the amyloid nucleation score was determined as 1.97 ± 0.087.

For KDMIYSHDKLKFQKKNKHMQ, the amyloid nucleation score entry was “inactive”.

As for TFEQVCVLL, the amyloid nucleation score entry is “inactive”.

As for KANDFTVFLRRVCLLNRVNA, the amyloid nucleation score entry was “inactive”.

For ISRSYCCVYT, the amyloid nucleation score result is “inactive”.

Consider SVFSFCLNYSYNCIDRCKFN, for which the amyloid nucleation score result is “inactive”.

With SPLSVGEHSEMWLRLVFG, the amyloid nucleation score result is “inactive”.

On to LKVTSFKALHCLTAYHSSPL, for which the amyloid nucleation score result was “inactive”.

Take VEDKCVWFV: the amyloid nucleation score result was “inactive”.

As for GFEAPWA, the amyloid nucleation score result is “inactive”.

As for SKTGGFFNAVHASCPGVPLQ, the amyloid nucleation score entry was “inactive”.

As to VSGWFDWDFLDDNGQYWLHV, the amyloid nucleation score result is “inactive”.

Turning to FCGIYCKAINSFAVDLMPWI, the amyloid nucleation score entry was “inactive”.

For NRFVDLGGQHDTHCVRGYGL, the amyloid nucleation score entry was “inactive”.

Substance VNYYRCWLVSIRYYSLHDHL registered an amyloid nucleation score of 2.35 ± 0.055.

NGFRI: the amyloid nucleation score result was “inactive”.

On to RSRVRKRYWLTACP, for which the amyloid nucleation score entry was “inactive”.

In the case of NVLVKYVPAALFRSNSLQET, the amyloid nucleation score result is “inactive”.

With RLRVFVIGLPGALQIVGSLG, the amyloid nucleation score is 0.005 ± 0.98.

GICHAACCCANVMYCSWHVR displayed an amyloid nucleation score of 1 ± 0.16.

As to LSYESCFGSHVGMRAEGCSR, the amyloid nucleation score was -0.485 ± 1.2.

Consider LMDLNADKWHNAFTYSSVVE, for which the amyloid nucleation score entry is “inactive”.

Take WAIGQLYFMRILV: the amyloid nucleation score result was “inactive”.

Turning to FILSVSYIRVCGARC, the amyloid nucleation score came out at 0.097 ± 0.48.

With HCNEYSGNVVSRG, the amyloid nucleation score result is “inactive”.

Take SRGLFTNGVASFRRVCGLPW: the amyloid nucleation score result is “inactive”.

Regarding DVPSSSSMAFGIWLGLLCLD, the amyloid nucleation score entry was “inactive”.

For VFLSAVAGDYIV, the amyloid nucleation score result was “inactive”.

Turning to TVVMIFLISYNFF, the amyloid nucleation score is 1.7 ± 0.1.

With NFSMCINRNKVPCVHLLDTL, the amyloid nucleation score result was “inactive”.

In the case of NGTLSYCPDKELSTLVFLHY, the amyloid nucleation score entry is “inactive”.

As to WGESNVSTIV, the amyloid nucleation score entry is “inactive”.

Take SVNSVTWLFVRMQYFLFISC: the amyloid nucleation score result was “inactive”.

Turning to TSVCSHSEVCGWSYYTDLLS, the amyloid nucleation score result is “inactive”.

For the substance KVVFFTALTEPWFSPQFQGL, the amyloid nucleation score entry is “inactive”.

Consider SCFCC, for which the amyloid nucleation score stood at 3.09 ± 0.061.

With DTEVHQNRFRMFGACDRERK, the amyloid nucleation score result was “inactive”.

As to TSETRPIGDA, the amyloid nucleation score entry is “inactive”.

In the case of AMSTGSSTWWYRSSKAIRGS, the amyloid nucleation score entry was “inactive”.

With SMKQMNMQHSSPRNRTDGRR, the amyloid nucleation score result is “inactive”.

Regarding DNDQNGVREVERGVLTLSSV, the amyloid nucleation score result was “inactive”.

For the substance LANTSRTGIFMDSNTDSRN, the amyloid nucleation score result is “inactive”.

Regarding FRVHLFFGKWRVVVCTR, the amyloid nucleation score result was “inactive”.

STLCSSCKGFDRMRYILVTR: the amyloid nucleation score is 0.274 ± 0.38.

Turning to TAEDYFMKVY, the amyloid nucleation score entry was “inactive”.

Take CMYKTFHFDY: the amyloid nucleation score result is “inactive”.

On to FELDIAYTEVLAVDCIPVVL, for which the amyloid nucleation score entry was “inactive”.

In turn, SNCGL showed an amyloid nucleation score of 0.832 ± 0.28.

Take PDLITLIFGSHFGKCSFISY: the amyloid nucleation score result is “inactive”.

With MFMYCPCSLEDICLRFPTPV, the amyloid nucleation score entry is “inactive”.

Consider LMFYGFYLVLRGS, for which the amyloid nucleation score result was “inactive”.

IMYSYNGRLCGTIELSFPGL: the amyloid nucleation score came to 0.814 ± 0.26.

As to GSVQAFCISKP, the amyloid nucleation score entry was “inactive”.

Take MNMGYFRFNL: the amyloid nucleation score entry was “inactive”.

With GRDLLLRHTMSRGCQILLE, the amyloid nucleation score result is “inactive”.

Take LLLSTRID: the amyloid nucleation score entry is “inactive”.

Take TVHNKMPHRLWNCTTLE: the amyloid nucleation score entry was “inactive”.

For the substance VTRFTYPRILLGRNVDWLSF, the amyloid nucleation score result is “inactive”.

On to MVFSAICITHFTKI, for which the amyloid nucleation score result is “inactive”.

As to CLKTFVFMTDTRG, the amyloid nucleation score was 1.47 ± 0.12.

Regarding YQGNLGPHT, the amyloid nucleation score entry was “inactive”.

Take VNISVRQALHANYVGTCFVC: the amyloid nucleation score came out at 1.85 ± 0.084.

VIKTLVSWTYISCRLN: the amyloid nucleation score entry is “inactive”.

Take IRGFVSIW: the amyloid nucleation score result was “inactive”.

SFHTDTPLMRHYIMRFYNDY: the amyloid nucleation score result is “inactive”.

The substance RGSDEDGYLG came in with an amyloid nucleation score of 0.003 ± 0.7.

For the substance SYSADLKLMIWSCLNLVVFQ, the amyloid nucleation score entry was “inactive”.

Take WTVIDYDKTWIYLLASVLYL: the amyloid nucleation score result was “inactive”.

With SNLVGCKLIHV, the amyloid nucleation score entry was “inactive”.

Take YVGVVVYLLPMLGALYGFGD: the amyloid nucleation score result is “inactive”.

The substance PCRPGRSRVVHS yielded an amyloid nucleation score of 0.614 ± 0.27.

PVDIVHVHAIRIMFMEGSDV: the amyloid nucleation score entry is “inactive”.

In turn, FISSSCSFVRCILLVNYKIR displayed an amyloid nucleation score of -0.66 ± 1.9.

In the case of MFIMVRRRLT, the amyloid nucleation score result was “inactive”.

With KQSYCVWESNYRTMYLNVCR, the amyloid nucleation score result was “inactive”.

Consider NNGSSRYMWSSYFLVGY, for which the amyloid nucleation score entry was “inactive”.
